Measurements as given in patent US20240100176A1, “HUMAN INTERLEUKIN-4 RECEPTOR ALPHA ANTIBODY GLUCOCORTICOID CONJUGATES” (Eli Lilly and Company, priority 2022, published 2024).
Read-outs that look alike come from different tables or passages of the source.

How the values were obtained:
[1] = biological target: human FcγRI (CD64) extracellular domain (human) (UniProt P12314); assay: SPR (Biacore), antibody captured on protein A, FcγR ECD as analyte, 25 °C
[2] = biological target: human FcγRI (CD64) extracellular domain (human) (UniProt P12314); assay: as above; remark: listed apart in the source
[3] = biological target: human FcγRIIA_131H (CD32a) extracellular domain (human) (UniProt P12318); assay: SPR (Biacore), antibody captured on protein A, FcγR ECD as analyte, steady state, 25 °C
Sequence of human FcγRIIA_131H (CD32a) extracellular domain (human) (P12318 34-217): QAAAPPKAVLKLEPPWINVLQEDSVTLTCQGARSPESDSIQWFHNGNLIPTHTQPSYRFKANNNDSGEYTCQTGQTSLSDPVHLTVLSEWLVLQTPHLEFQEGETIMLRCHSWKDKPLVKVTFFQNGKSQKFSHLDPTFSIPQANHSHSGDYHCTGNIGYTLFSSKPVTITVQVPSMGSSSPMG

[4] = biological target: human FcγRIIIA_158F (CD16a) extracellular domain (human) (UniProt P08637); assay: as above
Sequence of human FcγRIIIA_158F (CD16a) extracellular domain (human) (P08637 17-208): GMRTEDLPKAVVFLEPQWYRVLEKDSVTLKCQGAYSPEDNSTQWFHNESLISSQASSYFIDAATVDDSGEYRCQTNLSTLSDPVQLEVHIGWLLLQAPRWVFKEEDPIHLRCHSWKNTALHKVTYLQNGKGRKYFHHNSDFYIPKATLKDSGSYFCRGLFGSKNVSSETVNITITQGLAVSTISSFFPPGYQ

[5] = biological target: human FcγRIIA_131R (CD32a) extracellular domain (human) (UniProt P12318); assay: as above
Sequence of human FcγRIIA_131R (CD32a) extracellular domain (human) (P12318 34-217 H167R): as the sequence (P12318 34-217) above, with H134R counted along it

[6] = biological target: human FcγRIIb (CD32b) extracellular domain (human) (UniProt P31994); assay: as above
Sequence of human FcγRIIb (CD32b) extracellular domain (human) (P31994 43-217): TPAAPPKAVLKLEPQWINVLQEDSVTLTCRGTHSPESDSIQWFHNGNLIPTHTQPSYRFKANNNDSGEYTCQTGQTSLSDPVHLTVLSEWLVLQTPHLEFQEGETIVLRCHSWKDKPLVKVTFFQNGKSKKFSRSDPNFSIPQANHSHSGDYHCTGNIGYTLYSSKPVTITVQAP

[7] = biological target: human FcγRIIA_131H (CD32a) extracellular domain (human) (UniProt P12318); assay: as above; remark: listed apart in the source
[8] = biological target: human FcγRIIIA_158F (CD16a) extracellular domain (human) (UniProt P08637); assay: as above; remark: listed apart in the source
[9] = biological target: human FcγRIIA_131R (CD32a) extracellular domain (human) (UniProt P12318); assay: as above; remark: listed apart in the source
[10] = biological target: human FcγRIIb (CD32b) extracellular domain (human) (UniProt P31994); assay: as above; remark: listed apart in the source
[11] = biological target: human FcγRIIIA_158V (CD16a) extracellular domain (human) (UniProt P08637); assay: as above
Sequence of human FcγRIIIA_158V (CD16a) extracellular domain (human) (P08637 17-208 F176V): as the sequence (P08637 17-208) above, with F160V counted along it

Sequence of human FcγRI (CD64) extracellular domain (human) (P12314 16-292): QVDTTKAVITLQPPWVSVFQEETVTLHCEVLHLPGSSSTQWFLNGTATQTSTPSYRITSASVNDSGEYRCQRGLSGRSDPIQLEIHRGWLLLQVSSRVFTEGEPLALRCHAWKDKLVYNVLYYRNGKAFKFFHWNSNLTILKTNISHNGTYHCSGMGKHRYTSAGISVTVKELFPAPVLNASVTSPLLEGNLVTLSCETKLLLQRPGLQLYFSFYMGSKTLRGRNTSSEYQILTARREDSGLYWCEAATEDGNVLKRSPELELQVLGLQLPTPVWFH

Work on Hu IgG1 control (antibody) yielded a Kd [1] of 0.0559 nM, a Kd [2] of 0.0521 nM and a Kd [3] of 690 nM. The Kd [4] was 910 nM, the Kd [5] was 760 nM and the Kd [6] was 3750 nM. The Kd [7] was 680 nM, the Kd [8] was 1290 nM and the Kd [9] was 740 nM. It also gave a Kd [10] of 3110 nM.

For Hu IgG4 SP control (antibody), the Kd [2] was 0.419 nM, the Kd [7] was 5310 nM and the Kd [9] was 2310 nM. The Kd [11] was 7350 nM and the Kd [10] was 2780 nM.
